# Biological target: myrNAP22 (myristoylated NAP22), rat (rat) (UniProt Q05175)
# Assay: immunoprecipitation with control beads, supernatant on SDS-PAGE, Coomassie staining
# UniProt Q05175, sequence (Q05175 2-220 limits assumed): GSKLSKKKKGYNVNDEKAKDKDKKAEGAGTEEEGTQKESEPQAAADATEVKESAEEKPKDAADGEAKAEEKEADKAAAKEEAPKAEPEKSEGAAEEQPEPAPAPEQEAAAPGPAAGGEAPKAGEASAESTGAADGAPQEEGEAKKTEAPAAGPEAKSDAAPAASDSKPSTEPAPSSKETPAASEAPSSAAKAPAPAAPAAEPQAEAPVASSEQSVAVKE
substance,measurement,value
control clone (an antibody clone randomly cloned from the library) (scFv),signal intensity of myrNAP22 left in the supernatant (lane 2) relative to input (lane 3),90%

# Reference: WO2015137441A1
